Data published in patent publication US20240209022A1, “NOVEL PEPTIDE HAVING ANTI-INFLAMMATORY AND TISSUE REGENERATIVE ACTIONS” (KOREA RESEARCH INSTITUTE OF BIOSCIENCE AND BIOTECHNOLOGY, priority 2020, published 2024).

Key:
[1] = tested on: animal model of muscle atrophy/muscle strength loss due to natural aging (geriatric sarcopenia); test: Geriatric sarcopenia model (natural aging): muscle strength and muscle mass; format: in vivo, C57BL/6 mice; details: vs PBS buffer group
Method: The efficacy of the peptides was verified using an animal model of muscle atrophy/muscle strength loss due to natural aging (geriatric sarcopenia). At the time of administration of Amuc_1409, 80 to 83-week old C57BL/6 male mice were used. Amuc_1409 was dissolved in PBS buffer at a concentration of 2.4 μM and then orally administered to the mice by 150 μL per animal at the same time once a day for 32 weeks. To the control group, PBS buffer was orally administered in the same manner. At the 16th week of Amuc_1409 administration, aged mice were allowed to hold the wire net connected to the muscle strength probe of the grip strength meter with all four paws, and then the tail was carefully pulled backward to measure the maximum grip strength at the moment at which the mice held onto the wire net. For muscle weight, after administration, the gastrocnemius (GC), soleus, and tibialis anterior (TA) muscles from both hind paws of the aged mice of each group were carefully separated to avoid damage, and each weight was measured. Muscle weight versus body weight was calculated by correcting with the body weight of the mouse. After the end of the experiment, in order to analyze the size of muscle fibers in each group, TA muscles were fixed in 10% formalin, and frozen section samples (8 μm) were prepared to prepare slides. The prepared slides were washed with PBS buffer solution, permeabilized with 0.5% Triton X-100, blocked, and treated with primary antibody (anti-laminin). After 24 hours, a fluorescent secondary antibody (Alexa Fluor 488 Goat anti-rabbit IgG) was applied, and the slides were finally treated with DAPI for nuclear staining. The immunostained slides were subjected to photographing of muscle tissue using a confocal microscope. Using image analysis software (ImageInside), the distribution of cross-sectional area of muscle fibers was calculated for each size from a minimum of 500 μm^2 or less to 3500 μm^2 or more. Meanwhile, in order to examine the efficacy of Amuc_1409 as well as its fragments, 82- to 83-week-old C57BL/6 male mice were used. PEP001 was dissolved in PBS buffer at a concentration of 2.4 μM and then orally administered to the mice by 150 μL per animal at the same time once a day for 10 weeks. To the control group, PBS buffer was orally administered in the same manner. At the 10th week of PEP001 administration, the maximum grip strength and muscle weight were calculated in the same manner as the measurement in Amuc_1409. At the end of the experiment, a part of the GC muscle excised was homogenized with Trizol to extract RNA. Reverse transcriptase was added to the obtained RNA and reacted to synthesize cDNA, and SYBR Green and primers were added to perform quantitative real-time PCR (RT-qPCR). The gene expression level of insulin-like growth factor (IGF-1) involved in protein synthesis in muscle cells was then quantified. In addition, in order to confirm the efficacy of the novel tetrapeptides and tripeptides PEP006 to PEP013, the improvement efficacy on geriatric sarcopenia was examined using naturally aged 76 to 78-week old female C57BL/6J mice. For an additional 12 weeks, the novel tetrapeptides PEP006, PEP007, PEP008, PEP009, and PEP010 or novel tripeptides PEP011, PEP012, and PEP013 were each dissolved in PBS buffer at a concentration of 0.2 μg/150 μL and then orally administered to the naturally aged mice by 150 μL per mouse at the same time until the end of the test. To the control group, PBS buffer was orally administered in the same manner. For all animals, general symptoms were observed immediately before administration at the start of administration, and grip strength was measured at the 11th week of administration in order to analyze muscle strength attenuation. […]

[2] = tested on: ConA-induced acute hepatitis model; test: ConA-induced acute hepatitis model; format: in vivo, C57BL/6J mice; details: vs PBS buffer group
Method: An acute hepatitis model was induced by dissolving ConA (concanavalin A) in PBS buffer (phosphate buffered saline) at 1.5 mg/mL and injecting the solution into 8-week-old specific pathogen free (SPF) male C57BL/6J mice through the tail vein in proportion to the mouse body weight based on 100 μL/10 g. Amuc_1409 or PEP001, PEP002, PEP003, PEP004, or PEP005 was dissolved in PBS buffer at a concentration of 6.7 μM from 3 days before ConA administration, and PEP007, PEP008, PEP009, or PEP010 was dissolved in PBS buffer at a concentration of 0.2 μg/150 μL from 3 days before ConA administration, and Amuc_1409 was injected into the mouse peritoneal cavity once a day at the same time by 210 μL and PEP001 to PEP010 by 150 μL, and intraperitoneally injected additionally one time 30 minutes before ConA injection, and the experiment was terminated 9 hours after ConA intravenous injection. Into the control group, PBS buffer was intravenously injected in the same manner. At the end of the experiment 9 hours after ConA intravenous injection, blood was collected from the orbital venous plexus using a heparin-treated capillary tube, and the collected blood was immediately centrifuged at 10,000 rpm (4° C.) for 10 minutes to separate plasma and then subjected to the analysis of alanine aminotransferase (ALT) and aspartate aminotransferase (AST), which are indicators of liver damage, using an automatic blood biochemical analyzer (Beckman Coulter AU480 automatic analyzer, Beckman Coulter). The liver was harvested, a part of the liver was fixed in 10% NBF at room temperature for 24 hours or more and then embedded in paraffin to prepare a 5 μm-thick section, and the section was stained with hematoxylin and eosin (H&E).

[3] = tested on: C57BL/6J naturally aged mice; test: Skin aging in naturally aged mice (skin H&E); format: in vivo, C57BL/6J mice; details: oral, vs PBS buffer group
Method: As an animal model of aging, 19- to 22-month old C57BL/6J naturally aged mice were used. Solid feed and water were sufficiently supplied until the day of the experiment, the environment was maintained at a temperature of 22° C. 2° C., humidity of 55%±15%, and a 12-hour light/dark cycle, and the mice were used for the experiment. Amuc_1409 and PEP001 were dissolved in PBS buffer at 10 μg/150 μL and 0.7 μg/150 μL, respectively, and then orally administered to the naturally aged mice by 150 μL per animal at the same time once a day for […], and novel tetrapeptides PEP006, PEP007, PEP008, PEP009, and PEP010 and novel tripeptides PEP011, PEP012, and PEP013 were each dissolved in PBS buffer at a concentration of 0.2 μg/150 μL and then orally administered to the naturally aged mice by 150 μL per animal at the same time once a day for 10 weeks. To the control group, PBS buffer was orally administered in the same manner.
On the day to be the 10th week of administration, a part of the tissue was excised from the back of the mouse and fixed in 10% formalin for 24 hours or more for histopathological analysis.
The fixed skin tissue was embedded in paraffin to prepare a 5 μm-thick section, and the skin section was H&E-stained with hematoxylin and eosin to analyze the skin epidermis thickness and the number of hair follicles.

B1: Amuc_1409: SEQ ID NO: 15, functional fragment obtained by eliminating the leader sequence from SEQ ID NO: 14; protein derived from Akkermansia muciniphila (protein)
chain: IPESSVPAAAVSSIKGAYPNAGPIEWDSEMHGMERIYEAEFRINGFQFDVKIAPDGKIVRIKEEIAASSLPEAVRASVLKRYPGCRIKEAEKITEGELVRYKVEVADSRDDYDVLIAPDGNILHVDR
modifications: Amuc_1409_fragment
notes: protein derived from Akkermansia muciniphila
[1]; 16th week of administration, oral
  muscle strength (grip strength): significantly increased
[1]; after the experiment
  GC (gastrocnemius) muscle weight: increased
  TA (tibialis anterior) muscle weight: increased
  soleus muscle weight: significantly increased
[1]; laminin immunostaining
  muscle fibers with a size of 2,000 μm^2 or more in the TA muscle: significantly increased
  number of muscle fibers with a cross-sectional size of 500 μm^2 or less in the TA muscle: decreased
[1]
  average size of all muscle fibers: significantly increased
[2]; plasma, 9 hours after ConA
  ALT: significantly decreased
  AST: significantly decreased
[2]
  inflammatory cells infiltration into the liver and necrosis in the liver parenchyma (H&E): markedly reduced
[3]
  thickness of the skin epidermis: significantly increased
